# “And” between values parts separate entries of the source, which are not always exact repeats. Identical values can stand only once.
# Tests used:
# Settings in all cases: both partners purified
# [1] = target: T1, yellow fever virus (YFV) strain Asibi soluble E ectodomain (sE) (yellow fever virus, strain Asibi); assay: ITC
# [2] = target: T1, yellow fever virus (YFV) strain Asibi …; assay: SPR; pH 6; pr injected over immobilized sE; Biacore T200, 25°C
# [3] = target: T1, yellow fever virus (YFV) strain Asibi …; assay: SPR; pH 8; pr injected over immobilized sE; Biacore T200, 25°C
binder,measurement,setting,value
recombinant purified yellow fever virus (YFV) pr protein (natural protein) not shown,dH,[1],-16.6 kcal/mol and -16.3 kcal/mol
same,stoichiometry N,[1],0.9
same,Kd,[2],6.2 nM
same,koff,[2],0.00236 s⁻¹
same,kon,[2],380000 M⁻¹ s⁻¹
same,Kd,[3],19.7 nM
same,koff,[3],0.00134 s⁻¹
same,kon,[3],70000 M⁻¹ s⁻¹

# From paper PMC10653854 (mBio, 2023)
